# Where no end group is shown, it is not given here.
# Experiments:
# [1] = biological target: coagulation factor II thrombin receptor/protease activated receptor 1 (F2R/PAR1) (human (endogenous in ES-2)) (UniProt P25116)
# [2] = biological target: coagulation factor II thrombin receptor/protease activated receptor 1 (F2R/PAR1) (human (endogenous in ES-2)) (UniProt P25116); remark: listed apart in the source
# Sequence of UniProt P25116 (P25116 42-425): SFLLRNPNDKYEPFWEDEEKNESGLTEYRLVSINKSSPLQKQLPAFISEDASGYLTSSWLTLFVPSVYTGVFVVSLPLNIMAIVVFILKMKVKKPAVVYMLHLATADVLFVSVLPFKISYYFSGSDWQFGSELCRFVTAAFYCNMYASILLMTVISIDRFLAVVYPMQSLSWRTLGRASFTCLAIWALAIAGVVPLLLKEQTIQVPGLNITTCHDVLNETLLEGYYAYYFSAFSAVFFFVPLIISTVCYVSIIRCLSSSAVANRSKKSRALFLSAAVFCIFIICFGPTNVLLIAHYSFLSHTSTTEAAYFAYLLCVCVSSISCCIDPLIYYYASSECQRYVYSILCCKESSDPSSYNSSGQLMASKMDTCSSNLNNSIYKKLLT
binder,measurement,setting,value
"TFLLRGSGSGSC(DSPE‑PEG2000‑maleimide) (also: on doxorubicin-loaded lipid nanoparticles) [… conjugated to DSPE-PEG-maleimide, on doxorubicin-loaded lipid nanoparticles (LNP-Peptide-DOX)]","cellular uptake: DOX fluorescence (MFI per cell) of ES-2 cells by flow cytometry after 1 h at 37 °C, about 86 µM drug; LNP-DOX without peptide approximately 2000",[1],6000 MFI
same,"cytotoxicity on ES-2 cells, MTT assay, 24 h; IC50 as DOX concentration; LNP-DOX without peptide 10.16 µM, free DOX 0.6 µM",[2],1.26 µM

# From publication PMC12835398
